Reference: US20050058651A1 (published 2005)

Molecular target: T1, rat hnRNP M4 expressed in P388D1 mouse macrophage cells by transient transfection of hnRNP M4/pBK-CMV (rat, UniProt Q62826 2-690)
T1 construct: also called pBK-CMV/hnRNP M4
T1 sequence: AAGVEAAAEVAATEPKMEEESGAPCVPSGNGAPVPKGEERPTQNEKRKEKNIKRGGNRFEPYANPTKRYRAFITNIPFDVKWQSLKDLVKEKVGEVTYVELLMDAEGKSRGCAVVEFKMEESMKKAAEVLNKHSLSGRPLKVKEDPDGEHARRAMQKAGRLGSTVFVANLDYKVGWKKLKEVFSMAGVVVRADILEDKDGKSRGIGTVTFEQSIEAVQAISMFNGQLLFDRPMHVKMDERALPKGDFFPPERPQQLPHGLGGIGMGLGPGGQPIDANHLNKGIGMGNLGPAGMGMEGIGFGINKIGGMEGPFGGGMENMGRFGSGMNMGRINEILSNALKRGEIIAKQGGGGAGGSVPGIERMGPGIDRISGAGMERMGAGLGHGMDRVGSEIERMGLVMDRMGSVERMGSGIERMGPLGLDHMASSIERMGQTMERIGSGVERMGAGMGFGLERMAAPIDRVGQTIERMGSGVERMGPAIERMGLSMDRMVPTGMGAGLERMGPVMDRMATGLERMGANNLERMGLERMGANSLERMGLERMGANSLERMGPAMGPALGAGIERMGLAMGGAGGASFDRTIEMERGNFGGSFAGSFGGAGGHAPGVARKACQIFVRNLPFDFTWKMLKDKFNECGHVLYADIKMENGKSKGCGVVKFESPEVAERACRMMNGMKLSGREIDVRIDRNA
Assay: 125I labeled CEA binding/uptake by P388D1 cells 48 h after transient transfection, compared with matching vector
Text: To begin to elucidate the mechanism underlying the intracellular signaling associated with KC activation and CEA binding, the hnRNP M4 cDNA in the pBK-CMV expression vector was introduced into CEA non-responsive macrophage cell lines. The hnRNP M4 transcription in this system was driven by the CMV promoter. […] An approximately 5 times increase in CEA uptake was observed on transfecting […] of hnRNP M4/pBK-CMV plasmid. This fact implies that hnRNP M4 cDNA can initiate CEA binding in P388D1 […] macrophage cell line and can act as a receptor for CEA. […] At present, the reasons for lack of response by IC21 cells are not known.
Transient transfection of hnRNP M4 plasmid was carried out in P388D1 mouse lymphoid macrophage, IC21 mouse peritoneal and CRL2192 rat alveolar macrophage cell lines. As a positive control were used rat KC. The P388D1 cells were propagated in DMEM medium supplemented with 10% horse serum. The CRL 2192 cells were grown in F-12K medium (Kaighn's modification) supplemented with 15% FBS. The IC21 cells were grown in RPM1 1640 ATCC modified medium supplemented with 10% FBS. All cells were maintained at 37° C. in 5% CO₂ atmosphere. All tissue culture products were obtained from Life Technologies, USA. Cells for transfection were plated at 2-2.5.10⁵ cells per well in six well tissue culture clusters (Nunc products, Germany). […]

B1: carcinoembryonic antigen (CEA) (ligand, UniProt P06731 35-685, looked up)
chain: KLTIESTPFNVAEGKEVLLLVHNLPQHLFGYSWYKGERVDGNRQIIGYVIGTQQATPGPAYSGREIIYPNASLLIQNIIQNDTGFYTLHVIKSDLVNEEATGQFRVYPELPKPSISSNNSKPVEDKDAVAFTCEPETQDATYLWWVNNQSLPVSPRLQLSNGNRTLTLFNVTRNDTASYKCETQNPVSARRSDSVILNVLYGPDAPTISPLNTSYRSGENLNLSCHAASNPPAQYSWFVNGTFQQSTQELFIPNITVNNSGSYTCQAHNSDTGLNRTTVTTITVYAEPPKPFITSNNSNPVEDEDAVALTCEPEIQNTTYLWWVNNQSLPVSPRLQLSNDNRTLTLLSVTRNDVGPYECGIQNELSVDHSDPVILNVLYGPDDPTISPSYTYYRPGVNLSLSCHAASNPPAQYSWLIDGNIQQHTQELFISNITEKNSGLYTCQANNSASGHSRTTVKTITVSAELPKPSISSNNSKPVEDKDAVAFTCEPEAQNTTYLWWVNGQSLPVSPRLQLSNGNRTLTLFNVTRNDARAYVCGIQNSVSANRSDPVTLDVLYGPDTPIISPPDSSYLSGANLNLSCHSASNPSPQYSWRINGIPQQHTQVLFIAKITPNNNGTYACFVSNLATGRNNSIVKSITVSASGTSPGLSA
modifications: 125I label in the phage-lift and cell binding assays; unlabeled soluble CEA in the blot overlay
notes: also called soluble CEA; 125I labeled CEA
With B1 the “fold increase in CEA uptake (against vector-transfected cells)” value was about 5 times.
